B1: anti-DLL-4 antibody C3 (antibody, V domains shown)
VH: QVQLVQSGSELKKPGASVKVSCKASGYTFTSYYMHWVRQVPGQGLEWMGIINPSGGSTSYAQKFQGRVTMTRDTSTSTVYMELSSLRSEDTAVYYCATDYYDSSGYVDFDYWGQGTLVTVSS
VL: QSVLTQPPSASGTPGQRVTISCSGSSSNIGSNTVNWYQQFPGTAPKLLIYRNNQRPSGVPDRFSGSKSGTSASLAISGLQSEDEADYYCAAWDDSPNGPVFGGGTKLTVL
B2: anti-DLL-4 antibody G6 (antibody, V domains shown)
VH: EVQLVESGGSLVQPGGSLRLSCAASGFTFSNGWMTWLRQAPGKGLEWVATIKPDGSDTAYVESVKGRFTISRDNAKNLLYLQMDSLRGDDTAVYFCARDLAYNAFDIWGQGTMVTVSS
VL: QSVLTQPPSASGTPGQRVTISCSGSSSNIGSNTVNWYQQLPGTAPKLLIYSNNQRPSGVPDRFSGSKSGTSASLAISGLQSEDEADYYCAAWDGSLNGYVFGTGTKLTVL
B3: anti-DLL-4 antibody C10 (antibody, V domains shown)
VH: QVQLVESGAEVKKPGASVKVSCKASGYTFTSYYMHWVRQAPQGLEWMGIINPSGGSTSYAQKFQGRVTMTRDTSTNTVYMELSSLRSEDTAVYYCARDVWGGYFDYWGQGTLVTVSS
VL: QSVLTQPASVSGSPGQSITISCTGTSSDVGGYNYVSWYQQHPGKAPKLMIYDVTNRPSGVSNRFSGSKSGNTASLTISGLQAEDEADYYCSSYTSSSTVIFGGGTKLTVL

Each binder was assayed against T1, recombinant human DLL4 (rhDLL4) (human, UniProt Q9NR61 27-524) (assay: Biacore SPR).

Row | Binder | Kd
1 | B1 | 884 pM
2 | B2 | 1150 pM
3 | B3 | 1180 pM

Molecular target: T1, recombinant human DLL4 (rhDLL4)
Assay: Biacore SPR
Remark: another data set of the same source

Row | Binder | Ka
4 | B1 | 1.13e+09 M⁻¹
5 | B2 | 8.72e+08 M⁻¹
6 | B3 | 8.49e+08 M⁻¹

The binders below were run against T2, human DLL-4 expressed on the surface of CHO-K1 cells (CHO-DLL-4 cells) (human, UniProt Q9NR61 27-685) (assay: flow cytometry blocking of soluble Notch-1 binding).

Row | Binder | IC50
7 | B1 | 364 pM
8 | B2 | 286 pM
9 | B3 | 676 pM

These binders were tested against T2, human DLL-4 expressed on the surface of … (assay: flow cytometry).

Row | Binder | EC50
10 | B1 | 107 pM
11 | B2 | 305 pM
12 | B3 | 216 pM
